From patent US6416738
Values belong to the substance of their own block, whether it stands above or below them.

What was measured:
[1] = molecular target: NR-LU-10 antigen (approximately 40 kilodalton glycoprotein antigen expressed on most carcinomas) (human) (UniProt P16422); experiment: limiting antigen ELISA, percent of native NR-LU-10
[2] = molecular target: NR-LU-10 antigen on LS-180 tumor cells (human) (UniProt P16422); experiment: cell binding, percent of native NR-LU-10 (LS-180 cells as described for Table 2)
Chain of NR-LU-10 antigen on LS-180 tumor cells (human) (P16422 24-314): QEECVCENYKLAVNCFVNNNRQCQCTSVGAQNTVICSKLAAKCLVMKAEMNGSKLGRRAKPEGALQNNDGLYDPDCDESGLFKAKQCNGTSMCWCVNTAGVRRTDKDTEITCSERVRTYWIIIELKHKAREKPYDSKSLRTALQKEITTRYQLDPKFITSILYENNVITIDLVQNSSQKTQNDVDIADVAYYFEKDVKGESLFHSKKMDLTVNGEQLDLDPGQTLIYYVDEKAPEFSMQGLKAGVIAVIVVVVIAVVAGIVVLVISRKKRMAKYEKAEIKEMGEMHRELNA

[3] = molecular target: NR-LU-10 antigen (approximately 40 kilodalton glycoprotein antigen expressed on most carcinomas) (human) (UniProt P16422); experiment: ELISA, percent of native NR-LU-10 (thiol biotinylation)
[4] = molecular target: NR-LU-10 antigen on LS-180 tumor cells (human) (UniProt P16422); experiment: binding to LS-180 tumor cells at antigen excess, percent of native NR-LU-10
[5] = molecular target: Biotinylated NR-LU-10 (thiol); experiment: cell-based or functional assay
[6] = molecular target: Biotinylated NR-LU-10 (lysine); experiment: cell-based or functional assay
[7] = molecular target: Streptavidin (UniProt P22629); experiment: 20 ug radiolabeled protein with 400 ul streptavidin-agarose beads, spun and washed, counted
Chain of Streptavidin (P22629 37-163 limits assumed): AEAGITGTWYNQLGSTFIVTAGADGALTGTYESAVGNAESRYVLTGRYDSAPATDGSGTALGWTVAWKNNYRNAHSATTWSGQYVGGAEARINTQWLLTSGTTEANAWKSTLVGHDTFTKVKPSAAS

[8] = molecular target: Avidin (UniProt P02701); experiment: binding of radioiodinated biotinylated antibody to avidin-agarose
Chain of Avidin (P02701 25-152 limits assumed): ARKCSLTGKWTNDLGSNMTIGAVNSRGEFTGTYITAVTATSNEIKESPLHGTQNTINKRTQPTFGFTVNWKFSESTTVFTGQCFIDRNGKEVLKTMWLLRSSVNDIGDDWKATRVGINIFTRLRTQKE

[9] = molecular target: Avidin (UniProt P02701); experiment: residual circulating radiolabeled antibody after avidin injection in mice, examined in vitro on immobilized biotin

Chain of NR-LU-10 antigen (approximately 40 kilodalton glycoprotein antigen expressed on most carcinomas) (human) (P16422 24-314): as the sequence (P16422 24-314) above

Immunoassessment (%) ELISA, immunoreactivity as compared to native antibody [1]: 27%
Substance: Biotinylated NR-LU-10 (lysine), molar offering 40:1, measured 23.1 biotins/Ab (antibody)

Immunoassessment (%) Cell Binding [2]: 100%
Immunoassessment (%) ELISA, immunoreactivity as compared to native antibody [3]: 102%
Substance: Biotinylated NR-LU-10 (thiol), molar offering 50:1, measured 6.5 biotins/Ab (antibody)

Immunoassessment (%) Cell Binding [4]: 100%
Immunoassessment (%) ELISA, immunoreactivity as compared to native antibody [1]: 73%
Substance: Biotinylated NR-LU-10 (lysine), molar offering 10:1, measured 8.5 biotins/Ab (antibody)

Immunoassessment (%) ELISA, immunoreactivity as compared to native antibody [3]: 114%
Substance: Biotinylated NR-LU-10 (thiol), molar offering 10:1, measured 4.7 biotins/Ab (antibody)

Immunoassessment (%) Cell Binding [4]: 102%
Immunoassessment (%) ELISA, immunoreactivity as compared to native antibody [1]: 69%
Substance: Biotinylated NR-LU-10 (lysine), molar offering 13:1, measured 11.1 biotins/Ab (antibody)

circulating antibody level in mice after avidin administration (% of injected dose) [5]: 35
blood pool concentration of biotinylated antibody in mice after avidin administration [6]: 10 fold
Substance: Avidin (from UniProt P02701 25-152)

% radioactivity in Pellet (bound to streptavidin-agarose) [7]: 90%
% radioactivity in Supernatant (not bound to streptavidin-agarose) [7]: 10%
Substance: Biotinylated human asialoorosomucoid (from UniProt P02763 19-201)

Immunoassessment (%) Cell Binding [4]: 106%
Immunoassessment (%) ELISA, immunoreactivity as compared to native antibody [1]: 36%
Substance: Biotinylated NR-LU-10 (lysine), molar offering 20:1, measured 13.4 biotins/Ab (antibody)

% radioactivity in Pellet (bound to streptavidin-agarose) [7]: 92%
% radioactivity in Supernatant (not bound to streptavidin-agarose) [7]: 7.7%
Substance: Biotinylated human orosomucoid, PIP-125-labeled (from UniProt P02763 19-201)

% specific binding to immobilized avidin-agarose [8]: 98%
% of biotinylated antibody complexed with avidin [9]: 85%
Substance: Biotinylated NR-LU-10 (thiol) (antibody)

Immunoassessment (%) Cell Binding [2]: 100%
Immunoassessment (%) ELISA, immunoreactivity as compared to native antibody [3]: 95%
Substance: Biotinylated NR-LU-10 (thiol), molar offering 100:1, measured 6.1 biotins/Ab (antibody)

% specific binding to immobilized avidin-agarose [8]: 98%
Substance: Biotinylated NR-LU-10 (lysine) (antibody)

Immunoassessment (%) ELISA, immunoreactivity as compared to native antibody [1]: 86%
Substance: Biotinylated NR-LU-10 (lysine), molar offering 5:1, measured 3.4 biotins/Ab (antibody)
